# Laboratory results published in patent US6930088B2, “Conformationally constrained backbone cyclized somatostatin analogs” (Peptor Ltd., priority 1998, dated 2005).
# *1 amine or outer side, *2 acyl side, *3 side chain or, on linkers, in order; H or OH if unused. Bridges are numbered along the chain shown (N, C = ends). Where no end group is shown, it is not given here. [ ]: non-standard residue; d: D form. N(2-aminoethyl)Phe = O=C([C@H](Cc1ccccc1)N(CCN[*:3])[*:1])[*:2]; N(CH2CH2CO)Gly = O=C(CN(CCC(=O)[*:3])[*:1])[*:2]; 2Nal = N[C@@H](Cc1ccc2ccccc2c1)C(=O)O; Phe(C1) = not defined here; Phe(C2) = not defined here; Phe(C3) = not defined here
# Legend:
# [1] = test system: somatostatin receptors (SSTR-1, 2, 3, 4 or 5); test: Somatostatin receptor subtype selectivity of binding; set-up: species or system human; conditions: in words
# Description: (§1) The somatostatin analogs were tested for their potency in inhibition of the binding of ^125I-Tyr^11-SRIF (based on the method described by Raynor et. al., Molecular Pharmacology, 1993, 43, 838-844) to membrane preparations expressing the transmembranal somatostatin receptors (SSTR-1, 2, 3, 4 or 5). The receptor preparations used for these tests were either from the cloned human receptors selectively and stably expressed in Chinese Hamster Ovary (CHO) cells or from cell lines naturally expressing the SSTRs. Typically, cell membranes were homogenated in Tris buffer in the presence of protease inhibitors and incubated for 30-40 minutes with ^125I-Tyr^11-SRIF with different concentrations of the tested sample. The binding reactions were filtered, the filters were washed and the bound radioactivity was counted in gamma counter. Non specific binding was defined as the radioactivity remaining bound in the presence of 1 μM unlabeled SRIF-14.
# (§2) In order to validate positive signals of the binding tests, and to eliminate non-specific signals, samples of irrelevant peptides, such as GnRH, that were synthesized and handled using the same procedures, were tested in the same assays as negative control samples. These samples had no binding activity in any of the assays. Results are shown below in Tables 5 and 6 and FIG. 1.
# [2] = biological target: T1, SSTR-2 (Homo sapiens, UniProt P30874); test: Inhibition of 125I-Tyr11-SRIF binding to membrane preparations expressing SSTR-2; conditions: Table 15; read-out: IC50 (nM) for SST-R 2
# T1 construct: expressed in transfected cells
# T1 sequence (P30874 whole entry): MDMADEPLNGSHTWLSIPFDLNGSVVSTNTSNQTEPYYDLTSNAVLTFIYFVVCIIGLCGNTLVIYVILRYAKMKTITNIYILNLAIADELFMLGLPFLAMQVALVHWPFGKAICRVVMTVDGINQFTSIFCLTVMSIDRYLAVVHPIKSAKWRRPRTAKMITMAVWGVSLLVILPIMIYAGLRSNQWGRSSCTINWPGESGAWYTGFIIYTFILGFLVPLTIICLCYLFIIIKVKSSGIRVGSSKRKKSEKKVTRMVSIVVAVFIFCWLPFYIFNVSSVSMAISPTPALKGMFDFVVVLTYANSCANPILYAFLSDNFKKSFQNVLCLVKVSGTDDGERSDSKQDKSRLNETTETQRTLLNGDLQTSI
# Description: (§3) The receptor preparations used for these tests were either from the cloned human receptors selectively and stably expressed in Chinese Hamster Ovary (CHO) cells or from cell lines naturally expressing the SSTRs. […] The binding reactions were filtered, the filters were washed and the bound radioactivity was counted in gamma counter. Non specific binding was defined as the radioactivity remaining bound in the presence of 1 μM unlabeled SRIF-14.
# as §2
# [3] = biological target: T2, SSTR-5 (Homo sapiens, UniProt P35346); test: Inhibition of 125I-Tyr11-SRIF binding to membrane preparations expressing SSTR-5; conditions: Table 15; read-out: IC50 (nM) for SST-R 5
# T2 construct: expressed in transfected cells
# T2 sequence (P35346 whole entry): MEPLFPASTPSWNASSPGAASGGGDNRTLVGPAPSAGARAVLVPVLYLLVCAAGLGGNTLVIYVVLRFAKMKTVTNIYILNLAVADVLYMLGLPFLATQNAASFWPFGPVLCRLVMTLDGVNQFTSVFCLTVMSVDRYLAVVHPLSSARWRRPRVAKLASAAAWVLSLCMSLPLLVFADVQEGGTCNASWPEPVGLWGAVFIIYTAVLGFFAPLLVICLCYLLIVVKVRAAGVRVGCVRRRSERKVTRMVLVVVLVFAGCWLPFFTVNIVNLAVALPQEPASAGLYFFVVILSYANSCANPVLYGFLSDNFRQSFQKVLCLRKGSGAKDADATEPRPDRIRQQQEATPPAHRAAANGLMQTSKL
# Description: as §3, §2
# [4] = biological target: T3, SSTR-3 (Homo sapiens, UniProt P32745); test: Inhibition of 125I-Tyr11-SRIF binding to membrane preparations expressing SSTR-3; conditions: Table 15; read-out: IC50 (nM) for SST-R 3
# T3 construct: expressed in transfected cells
# T3 sequence (P32745 whole entry): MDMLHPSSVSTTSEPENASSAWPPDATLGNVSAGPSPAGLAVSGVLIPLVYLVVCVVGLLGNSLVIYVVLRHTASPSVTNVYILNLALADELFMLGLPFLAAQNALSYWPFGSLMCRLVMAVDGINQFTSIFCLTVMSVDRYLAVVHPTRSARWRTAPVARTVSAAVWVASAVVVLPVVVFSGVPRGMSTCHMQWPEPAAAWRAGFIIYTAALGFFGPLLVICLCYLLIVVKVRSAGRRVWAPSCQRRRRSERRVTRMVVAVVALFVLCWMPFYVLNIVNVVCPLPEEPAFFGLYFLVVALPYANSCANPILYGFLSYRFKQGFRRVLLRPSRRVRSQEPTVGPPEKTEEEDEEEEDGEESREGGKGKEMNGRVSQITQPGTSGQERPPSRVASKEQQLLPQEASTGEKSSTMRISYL
# Description: as §1, with “Typically, cell membranes were homogenated in Tris buffer in the presence of protease inhibitors and incubated for 30-40 minutes with ^125I-Tyr^11-SRIF with different concentrations of the tested sample.” left out
# as §2
# [5] = biological target: T4, cloned human somatostatin receptor 5 (human, UniProt P35346 1-364); test: inhibition of SRIF binding, cloned human SSTR-5; head says nM, values evidently molar
# T4 construct: whole, on cells; Tested as cell membrane preparations; also called SSTR-5; SSTR5
# T4 sequence (P35346 whole entry): as the sequence (P35346 whole entry) above
# Source text: as §3, with “counter.” for “counter. Non specific binding was defined as the radioactivity remaining bound in the presence of 1 μM unlabeled SRIF-14.”
# [6] = biological target: T5, cloned human somatostatin receptor 2 (human, UniProt P30874 1-369); test: inhibition of SRIF binding, cloned human SSTR-2; head says nM, values evidently molar
# T5 construct: whole, on cells; Tested as cell membrane preparations; also called SSTR-2; SSTR2
# T5 sequence (P30874 whole entry): as the sequence (P30874 whole entry) above
# Source text: as §3, with “counter.” for “counter. Non specific binding was defined as the radioactivity remaining bound in the presence of 1 μM unlabeled SRIF-14.”
# [7] = biological target: T6, cloned human somatostatin receptor 3 (human, UniProt P32745 1-418); test: inhibition of SRIF binding, cloned human SSTR-3; head says nM, values evidently molar
# T6 construct: whole, on cells; Tested as cell membrane preparations; also called SSTR-3; SSTR3
# T6 sequence (P32745 whole entry): as the sequence (P32745 whole entry) above
# Source text: as §3, with “counter.” for “counter. Non specific binding was defined as the radioactivity remaining bound in the presence of 1 μM unlabeled SRIF-14.”
# [8] = biological target: T7, cloned human somatostatin receptor 4 (human, UniProt P31391 1-388); test: 125I-Tyr11-SRIF displacement, cloned human SSTR-R4
# T7 construct: whole, on cells; Tested as cell membrane preparations; also called SSTR-4; SSTR-R4
# T7 sequence (P31391 whole entry): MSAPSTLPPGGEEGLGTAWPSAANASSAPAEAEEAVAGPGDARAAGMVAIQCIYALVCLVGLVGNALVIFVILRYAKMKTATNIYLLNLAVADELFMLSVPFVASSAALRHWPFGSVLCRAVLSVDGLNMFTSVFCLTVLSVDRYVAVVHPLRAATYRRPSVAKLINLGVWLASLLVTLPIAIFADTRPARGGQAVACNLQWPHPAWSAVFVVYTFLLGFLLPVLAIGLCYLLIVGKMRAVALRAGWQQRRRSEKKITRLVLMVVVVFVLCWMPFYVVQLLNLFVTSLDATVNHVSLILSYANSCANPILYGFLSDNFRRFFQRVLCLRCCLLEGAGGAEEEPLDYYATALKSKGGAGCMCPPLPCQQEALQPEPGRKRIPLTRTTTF
# [9] = biological target: T6, cloned human somatostatin receptor 3; test: 125I-Tyr11-SRIF displacement, membranes, cloned human SST-R3
# Source text: as §3, with “counter.” for “counter. Non specific binding was defined as the radioactivity remaining bound in the presence of 1 μM unlabeled SRIF-14.”
molecule,measurement,setting,value
Phe(N2)-Tyr-(D)Trp-Lys-Val-Gly(C2)-2Nal-X ([N(2-aminoethyl)Phe]Y[dW]KV[N(CH2CH2CO)Gly][2Nal]; lactam 1-6; not fully specified) [PTR 3183],somatostatin receptor subtype selectivity,[1],selective for the type 5 somatostatin receptor
"C[C@@H](O)[C@@H]1NC(=O)[C@H](CCCCN)NC(=O)[C@@H](Cc2c[nH]c3ccccc23)NC(=O)[C@H](Cc2c[nH]c3ccccc23)NC(=O)[C@H](Cc2ccccc2)NC(=O)CNCCSSCCN(CC(N)=O)C(=O)[C@H](Cc2ccccc2)NC1=O [PTR 3213, Gly(S2)*-Phe-Trp-(D)Trp-Lys-Thr-Phe-Gly(S2)*-NH2]",IC50,[2],4 nM
same,IC50,[3],12 nM
"C[C@@H](O)[C@@H]1NC(=O)[C@H](CCCCN)NC(=O)[C@@H](Cc2c[nH]c3ccccc23)NC(=O)[C@H](Cc2c[nH]c3ccccc23)NC(=O)[C@H](Cc2ccccc2)NC(=O)CSSCCN(CC(N)=O)C(=O)[C@H](Cc2ccccc2)NC1=O [PTR 3211, Mercapto-acetic-acid(*)-Phe-Trp-(D)Trp-Lys-Thr-Phe-Gly(S2)*-NH2]",IC50,[2],37 nM
same,IC50,[4],12 to 37 nM
"[N(2-aminoethyl)Phe]Y[dW]KS[2Nal][N(CH2CH2CO)Gly] (lactam 1-7; not fully specified, Backbone cyclized heptapeptide) [PTR 3201]",IC50,[5],0.001 µM
same,IC50,[6],0.1 µM
same,IC50,[7],0.01 µM
"[N(2-aminoethyl)Phe]F[dW]KT[2Nal][N(CH2CH2CO)Gly] (lactam 1-7; not fully specified, Backbone cyclized heptapeptide) [PTR 3203]",IC50,[5],0.01 µM
same,IC50,[6],0.1 µM
same,IC50,[7],0.01 µM
"[Phe(C3)]CF[dW]KTC[Phe(N3)]-NH2 (lactam 1-8; disulfide 2-7; reading uncertain, Bicyclic analog) [PTR 3205]",IC50,[6],0.001 µM
"XFWWKTFG (GABA at 1 (written X); (D)Trp at 4; Gly(C3) building unit at 8 bridged by an amide to the N terminus (GABA); C-terminal amide, Backbone-to-end cyclized octapeptide) [PTR 3173]",IC50,[5],0.001 µM
same,IC50,[6],0.001 µM
same,IC50,[7],0.1 µM
same,percent inhibition of SRIF-14 binding at 10^-6 M,[8],5%
same,percent inhibition of SRIF-14 binding at 10^-7M,[8],5%
same,percent inhibition of SRIF-14 binding at 10^-8M,[8],0%
same,percent inhibition of SRIF-14 binding at 10^-9 M,[8],0%
same,percent inhibition of SRIF-14 binding at 10^-10 M,[8],0%
same,percent inhibition of SRIF-14 binding at 10^-11 M,[8],0%
"[Phe(C1)]FF[dW]K[N(2-aminoethyl)Phe] (lactam 1-6; reading uncertain, Backbone cyclized hexapeptide somatostatin analog) [PTR 3113]",percent inhibition of SRIF-14 binding at 10^-6M,[9],94%
same,percent inhibition of SRIF-14 binding at 10^-7M,[9],65%
same,percent inhibition of SRIF-14 binding at 10^-8M,[9],16%
"FFF[dW][dK][Phe(C2)] (lactam N-6; reading uncertain, Backbone-to-end cyclized hexapeptide) [PTR 3171]",percent inhibition of SRIF-14 binding at 10^-6M,[9],87%
same,percent inhibition of SRIF-14 binding at 10^-7M,[9],40%
same,percent inhibition of SRIF-14 binding at 10^-8M,[9],12%
